Experimental findings from patent publication US20260070987A1 are described below.

Sequences and labels used below:
B1: equine IgG1 T286K (antibody, part only; not given: variable domains, not shown: another chain or arm of the molecule)
constant: ASTTAPKVFALAPGCGTTSDSTVALGCLVSGYFPEPVKVSWNSGSLTSGVHTFPSVLQSSGFYSLSSMVTVPASTWTSETYICNVVHAASNFKVDKRIEPIPDNHQKVCDMSKCPKCPAPELLGGPSVFIFPPNPKDTLMITRTPEVTCVVVDVSQENPDVKFNWYMDGVEVRKATTRPKEEQFNSTYRVVSVLRIQHQDWLSGKEFKCKVNNQALPQPIERTITKTKGRSQEPQVYVLAPHPDELSKSKVSVTCLVKDFYPPEINIEWQSNGQPELETKYSTTQAQQDSDGSYFLYSKLSVDRNRWQQGTTFTCGVMHEALHNHYTQKNVSKNPGK
B2: equine IgG1 T286L (antibody, part only; not given: variable domains, not shown: another chain or arm of the molecule)
constant: ASTTAPKVFALAPGCGTTSDSTVALGCLVSGYFPEPVKVSWNSGSLTSGVHTFPSVLQSSGFYSLSSMVTVPASTWTSETYICNVVHAASNFKVDKRIEPIPDNHQKVCDMSKCPKCPAPELLGGPSVFIFPPNPKDTLMITRTPEVTCVVVDVSQENPDVKFNWYMDGVEVRLATTRPKEEQFNSTYRVVSVLRIQHQDWLSGKEFKCKVNNQALPQPIERTITKTKGRSQEPQVYVLAPHPDELSKSKVSVTCLVKDFYPPEINIEWQSNGQPELETKYSTTQAQQDSDGSYFLYSKLSVDRNRWQQGTTFTCGVMHEALHNHYTQKNVSKNPGK
B3: equine IgG4 A426L (antibody, part only; not given: variable domains, not shown: another chain or arm of the molecule)
constant: ASTTAPKVFPLASHSAATSGSTVALGCLVSSYFPEPVTVSWNSGALTSGVHTFPSVLQSSGLYSLSSMVTVPASSLKSQTYICNVAHPASSTKVDKKIVIKECNGGCPAECLQVGPSVFIFPPKPKDVLMISRTPTVTCVVVDVGHDFPDVQFNWYVDGVETHTATTEPKQEQFNSTYRVVSVLPIQHKDWLSGKEFKCKVNNKALPAPVERTISKPTGQPREPQVYVLAPHRDELSKNKVSVTCLVKDFYPTDIDIEWKSNGQPEPETKYSTTPAQLDSDGSYFLYSKLTVETNRWQQGTTFTCLVMHEALHNHYTEKSVSKSPGK
B4: equine IgG4 A426W (antibody, part only; not given: variable domains, not shown: another chain or arm of the molecule)
constant: ASTTAPKVFPLASHSAATSGSTVALGCLVSSYFPEPVTVSWNSGALTSGVHTFPSVLQSSGLYSLSSMVTVPASSLKSQTYICNVAHPASSTKVDKKIVIKECNGGCPAECLQVGPSVFIFPPKPKDVLMISRTPTVTCVVVDVGHDFPDVQFNWYVDGVETHTATTEPKQEQFNSTYRVVSVLPIQHKDWLSGKEFKCKVNNKALPAPVERTISKPTGQPREPQVYVLAPHRDELSKNKVSVTCLVKDFYPTDIDIEWKSNGQPEPETKYSTTPAQLDSDGSYFLYSKLTVETNRWQQGTTFTCWVMHEALHNHYTEKSVSKSPGK
B5: equine IgG4 A426N (antibody, part only; not given: variable domains, not shown: another chain or arm of the molecule)
constant: ASTTAPKVFPLASHSAATSGSTVALGCLVSSYFPEPVTVSWNSGALTSGVHTFPSVLQSSGLYSLSSMVTVPASSLKSQTYICNVAHPASSTKVDKKIVIKECNGGCPAECLQVGPSVFIFPPKPKDVLMISRTPTVTCVVVDVGHDFPDVQFNWYVDGVETHTATTEPKQEQFNSTYRVVSVLPIQHKDWLSGKEFKCKVNNKALPAPVERTISKPTGQPREPQVYVLAPHRDELSKNKVSVTCLVKDFYPTDIDIEWKSNGQPEPETKYSTTPAQLDSDGSYFLYSKLTVETNRWQQGTTFTCNVMHEALHNHYTEKSVSKSPGK
B6: equine IgG4 M428A (antibody, part only; not given: variable domains, not shown: another chain or arm of the molecule)
constant: ASTTAPKVFPLASHSAATSGSTVALGCLVSSYFPEPVTVSWNSGALTSGVHTFPSVLQSSGLYSLSSMVTVPASSLKSQTYICNVAHPASSTKVDKKIVIKECNGGCPAECLQVGPSVFIFPPKPKDVLMISRTPTVTCVVVDVGHDFPDVQFNWYVDGVETHTATTEPKQEQFNSTYRVVSVLPIQHKDWLSGKEFKCKVNNKALPAPVERTISKPTGQPREPQVYVLAPHRDELSKNKVSVTCLVKDFYPTDIDIEWKSNGQPEPETKYSTTPAQLDSDGSYFLYSKLTVETNRWQQGTTFTCAVAHEALHNHYTEKSVSKSPGK
B7: equine IgG4 A426Q (antibody, part only; not given: variable domains, not shown: another chain or arm of the molecule)
constant: ASTTAPKVFPLASHSAATSGSTVALGCLVSSYFPEPVTVSWNSGALTSGVHTFPSVLQSSGLYSLSSMVTVPASSLKSQTYICNVAHPASSTKVDKKIVIKECNGGCPAECLQVGPSVFIFPPKPKDVLMISRTPTVTCVVVDVGHDFPDVQFNWYVDGVETHTATTEPKQEQFNSTYRVVSVLPIQHKDWLSGKEFKCKVNNKALPAPVERTISKPTGQPREPQVYVLAPHRDELSKNKVSVTCLVKDFYPTDIDIEWKSNGQPEPETKYSTTPAQLDSDGSYFLYSKLTVETNRWQQGTTFTCQVMHEALHNHYTEKSVSKSPGK
B8: equine IgG4 M428D (antibody, part only; not given: Variable domains, not shown: another chain or arm of the molecule)
constant: ASTTAPKVFPLASHSAATSGSTVALGCLVSSYFPEPVTVSWNSGALTSGVHTFPSVLQSSGLYSLSSMVTVPASSLKSQTYICNVAHPASSTKVDKKIVIKECNGGCPAECLQVGPSVFIFPPKPKDVLMISRTPTVTCVVVDVGHDFPDVQFNWYVDGVETHTATTEPKQEQFNSTYRVVSVLPIQHKDWLSGKEFKCKVNNKALPAPVERTISKPTGQPREPQVYVLAPHRDELSKNKVSVTCLVKDFYPTDIDIEWKSNGQPEPETKYSTTPAQLDSDGSYFLYSKLTVETNRWQQGTTFTCAVDHEALHNHYTEKSVSKSPGK
B9: equine IgG4 A426T (antibody, part only; not given: Variable domains, not shown: another chain or arm of the molecule)
constant: ASTTAPKVFPLASHSAATSGSTVALGCLVSSYFPEPVTVSWNSGALTSGVHTFPSVLQSSGLYSLSSMVTVPASSLKSQTYICNVAHPASSTKVDKKIVIKECNGGCPAECLQVGPSVFIFPPKPKDVLMISRTPTVTCVVVDVGHDFPDVQFNWYVDGVETHTATTEPKQEQFNSTYRVVSVLPIQHKDWLSGKEFKCKVNNKALPAPVERTISKPTGQPREPQVYVLAPHRDELSKNKVSVTCLVKDFYPTDIDIEWKSNGQPEPETKYSTTPAQLDSDGSYFLYSKLTVETNRWQQGTTFTCTVMHEALHNHYTEKSVSKSPGK
B10: equine IgG4 A426M (antibody, part only; not given: Variable domains, not shown: another chain or arm of the molecule)
constant: ASTTAPKVFPLASHSAATSGSTVALGCLVSSYFPEPVTVSWNSGALTSGVHTFPSVLQSSGLYSLSSMVTVPASSLKSQTYICNVAHPASSTKVDKKIVIKECNGGCPAECLQVGPSVFIFPPKPKDVLMISRTPTVTCVVVDVGHDFPDVQFNWYVDGVETHTATTEPKQEQFNSTYRVVSVLPIQHKDWLSGKEFKCKVNNKALPAPVERTISKPTGQPREPQVYVLAPHRDELSKNKVSVTCLVKDFYPTDIDIEWKSNGQPEPETKYSTTPAQLDSDGSYFLYSKLTVETNRWQQGTTFTCMVMHEALHNHYTEKSVSKSPGK
B11: equine IgG4 A426V (antibody, part only; not given: Variable domains, not shown: another chain or arm of the molecule)
constant: ASTTAPKVFPLASHSAATSGSTVALGCLVSSYFPEPVTVSWNSGALTSGVHTFPSVLQSSGLYSLSSMVTVPASSLKSQTYICNVAHPASSTKVDKKIVIKECNGGCPAECLQVGPSVFIFPPKPKDVLMISRTPTVTCVVVDVGHDFPDVQFNWYVDGVETHTATTEPKQEQFNSTYRVVSVLPIQHKDWLSGKEFKCKVNNKALPAPVERTISKPTGQPREPQVYVLAPHRDELSKNKVSVTCLVKDFYPTDIDIEWKSNGQPEPETKYSTTPAQLDSDGSYFLYSKLTVETNRWQQGTTFTCVVMHEALHNHYTEKSVSKSPGK
B12: equine IgG4 A426Y (antibody, part only; not given: variable domains, not shown: another chain or arm of the molecule)
constant: ASTTAPKVFPLASHSAATSGSTVALGCLVSSYFPEPVTVSWNSGALTSGVHTFPSVLQSSGLYSLSSMVTVPASSLKSQTYICNVAHPASSTKVDKKIVIKECNGGCPAECLQVGPSVFIFPPKPKDVLMISRTPTVTCVVVDVGHDFPDVQFNWYVDGVETHTATTEPKQEQFNSTYRVVSVLPIQHKDWLSGKEFKCKVNNKALPAPVERTISKPTGQPREPQVYVLAPHRDELSKNKVSVTCLVKDFYPTDIDIEWKSNGQPEPETKYSTTPAQLDSDGSYFLYSKLTVETNRWQQGTTFTCYVMHEALHNHYTEKSVSKSPGK
B13: equine IgG4 A426S (antibody, part only; not given: variable domains, not shown: another chain or arm of the molecule)
constant: ASTTAPKVFPLASHSAATSGSTVALGCLVSSYFPEPVTVSWNSGALTSGVHTFPSVLQSSGLYSLSSMVTVPASSLKSQTYICNVAHPASSTKVDKKIVIKECNGGCPAECLQVGPSVFIFPPKPKDVLMISRTPTVTCVVVDVGHDFPDVQFNWYVDGVETHTATTEPKQEQFNSTYRVVSVLPIQHKDWLSGKEFKCKVNNKALPAPVERTISKPTGQPREPQVYVLAPHRDELSKNKVSVTCLVKDFYPTDIDIEWKSNGQPEPETKYSTTPAQLDSDGSYFLYSKLTVETNRWQQGTTFTCSVMHEALHNHYTEKSVSKSPGK
B14: equine IgG4 M428C (antibody, part only; not given: variable domains, not shown: another chain or arm of the molecule)
constant: ASTTAPKVFPLASHSAATSGSTVALGCLVSSYFPEPVTVSWNSGALTSGVHTFPSVLQSSGLYSLSSMVTVPASSLKSQTYICNVAHPASSTKVDKKIVIKECNGGCPAECLQVGPSVFIFPPKPKDVLMISRTPTVTCVVVDVGHDFPDVQFNWYVDGVETHTATTEPKQEQFNSTYRVVSVLPIQHKDWLSGKEFKCKVNNKALPAPVERTISKPTGQPREPQVYVLAPHRDELSKNKVSVTCLVKDFYPTDIDIEWKSNGQPEPETKYSTTPAQLDSDGSYFLYSKLTVETNRWQQGTTFTCAVCHEALHNHYTEKSVSKSPGK
B15: equine IgG4 A426P (antibody, part only; not given: Variable domains, not shown: another chain or arm of the molecule)
constant: ASTTAPKVFPLASHSAATSGSTVALGCLVSSYFPEPVTVSWNSGALTSGVHTFPSVLQSSGLYSLSSMVTVPASSLKSQTYICNVAHPASSTKVDKKIVIKECNGGCPAECLQVGPSVFIFPPKPKDVLMISRTPTVTCVVVDVGHDFPDVQFNWYVDGVETHTATTEPKQEQFNSTYRVVSVLPIQHKDWLSGKEFKCKVNNKALPAPVERTISKPTGQPREPQVYVLAPHRDELSKNKVSVTCLVKDFYPTDIDIEWKSNGQPEPETKYSTTPAQLDSDGSYFLYSKLTVETNRWQQGTTFTCPVMHEALHNHYTEKSVSKSPGK
B16: equine IgG4 A426R (antibody, part only; not given: variable domains, not shown: another chain or arm of the molecule)
constant: ASTTAPKVFPLASHSAATSGSTVALGCLVSSYFPEPVTVSWNSGALTSGVHTFPSVLQSSGLYSLSSMVTVPASSLKSQTYICNVAHPASSTKVDKKIVIKECNGGCPAECLQVGPSVFIFPPKPKDVLMISRTPTVTCVVVDVGHDFPDVQFNWYVDGVETHTATTEPKQEQFNSTYRVVSVLPIQHKDWLSGKEFKCKVNNKALPAPVERTISKPTGQPREPQVYVLAPHRDELSKNKVSVTCLVKDFYPTDIDIEWKSNGQPEPETKYSTTPAQLDSDGSYFLYSKLTVETNRWQQGTTFTCRVMHEALHNHYTEKSVSKSPGK

As usually defined, the Kd is the concentration at which binding is half-saturated.

For this experiment, the target named is equine FcRn (large alpha subunit p51) / equine beta-2-microglobulin complex, biotinylated (equine) (UniProt P30441). As to the kind of experiment: SPR (Biacore), pH 6. Background: SPR reads the build-up and loss of mass on a sensor chip optically.
Sequence of UniProt P30441 (P30441 21-118, one chain of several): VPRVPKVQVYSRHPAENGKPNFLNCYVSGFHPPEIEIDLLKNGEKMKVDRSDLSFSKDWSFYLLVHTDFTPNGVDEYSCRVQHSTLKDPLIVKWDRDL
Regarding B1, the dissociation constant (Kd) amounted to 37.3 nM.

Take B2: the Kd was 12.3 nM.

In turn, B3 showed a dissociation constant (Kd) of 17.4 nM.

As to B4, the Kd was 14.4 nM. The molecule B5 showed a Kd of 18.7 nM. B6 yielded a dissociation constant (Kd) of 23000 nM. The result for B7 reads 21.2 nM; that for B8, 40.7 nM. As for B9, the Kd came to 15.8 nM.

The molecule B10 gave a dissociation constant Kd of 18.5 nM. In the case of B11, the Kd stood at 18.8 nM. The result for B12 reads 12.3 nM; that for B13, 21.1 nM.

In turn, B14 displayed a Kd of 53.2 nM. B15: the Kd was 9.8 nM.

On to B16, for which the Kd worked out at 22 nM.
